Measured values as given in article PMC5228053.

Molecular target: pyruvate kinase type M2 (PKM2) (human (endogenous in A549)) (UniProt P14618)
Test: cross-linking; A549 cells in PBS (2 mg/ml protein), EDC 10 mM / sulfo-NHS 5 mM, room temperature, quenched with 20 mM DTT, then western blot for PKM2; cells treated with pTyr peptide, FBP or serine

pyruvate kinase type M2 (PKM2), P14618 1-531 (enzyme; other documents disagree on this pair), sequence (P14618 whole entry): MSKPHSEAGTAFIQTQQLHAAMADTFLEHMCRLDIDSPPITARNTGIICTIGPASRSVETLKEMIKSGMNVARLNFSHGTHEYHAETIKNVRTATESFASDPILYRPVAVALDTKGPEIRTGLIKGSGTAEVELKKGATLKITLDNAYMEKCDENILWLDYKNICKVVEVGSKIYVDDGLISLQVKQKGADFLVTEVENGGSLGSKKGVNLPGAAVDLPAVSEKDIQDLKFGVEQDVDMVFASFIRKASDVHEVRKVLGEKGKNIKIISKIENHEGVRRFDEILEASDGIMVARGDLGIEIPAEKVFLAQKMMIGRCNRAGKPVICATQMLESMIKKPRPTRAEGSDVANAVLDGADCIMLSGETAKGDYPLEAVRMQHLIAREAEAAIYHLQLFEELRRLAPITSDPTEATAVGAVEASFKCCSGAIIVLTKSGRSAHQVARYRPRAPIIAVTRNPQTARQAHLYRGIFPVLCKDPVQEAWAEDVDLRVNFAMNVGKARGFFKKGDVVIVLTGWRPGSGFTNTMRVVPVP

- stoichiometry N: 2
Substance: pyruvate kinase type M2 (PKM2), P14618 1-531 (enzyme; other documents disagree on this pair)
